Results reported in patent publication US20230287145A1 (Hoffmann-La Roche, published 2023).
Changes are numbered by the printed parent chain. In names and notes the source's numbering stands.

B1: TYRP1 TCB containing optimized anti-CD3 antibody clone P033.078 (bispecific antibody, human IgG1, kappa, L234A L235A)
heavy 1: not shown
heavy 2: QVQLVQSGAEVKKPGASVKVSCKASGFNIKDYFLHWVRQAPGQGLEWMGWINPDNGNTVYAQKFQGRVTMTADTSTSTVYMELSSLRSEDTAVYYCTRRDYTYEKAALDYWGQGTLVTVSSASTKGPSVFPLAPSSKSTSGGTAALGCLVEDYFPEPVTVSWNSGALTSGVHTFPAVLQSSGLYSLSSVVTVPSSSLGTQTYICNVNHKPSNTKVDEKVEPKSCDKTHTCPPCPAPEAAGGPSVFLFPPKPKDTLMISRTPEVTCVVVDVSHEDPEVKFNWYVDGVEVHNAKTKPREEQYNSTYRVVSVLTVLHQDWLNGKEYKCKVSNKALGAPIEKTISKAKGQPREPQVCTLPPSRDELTKNQVSLSCAVKGFYPSDIAVEWESNGQPENNYKTTPPVLDSDGSFFLVSKLTVDKSRWQQGNVFSCSVMHEALHNHYTQKSLSLSP
light 1: DIQMTQSPSSLSASVGDRVTITCRASGNIYNYLAWYQQKPGKVPKLLIYDAKTLADGVPSRFSGSGSGTDFTLTISSLQPEDVATYYCQHFWSLPFTFGQGTKLEIKRTVAAPSVFIFPPSDRKLKSGTASVVCLLNNFYPREAKVQWKVDNALQSGNSQESVTEQDSKDSTYSLSSTLTLSKADYEKHKVYACEVTHQGLSSPVTKSFNRGEC
light 2: EVQLLESGGGLVQPGGSLRLSCAASGFTFESYAMNWVRQAPGKGLEWVSRIRSKYNEYATYYADSVKGRFTISRDDSKNTLYLQMNSLRAEDTAVYYCVRASNFPSSFVSYFGYWGQGTLVTVSSASVAAPSVFIFPPSDEQLKSGTASVVCLLNNFYPREAKVQWKVDNALQSGNSQESVTEQDSKDSTYSLSSTLTLSKADYEKHKVYACEVTHQGLSSPVTKSFNRGEC
notes: 2+1 IgG CrossFab, inverted, with charge modifications; knob-into-hole, P329G L234A L235A; also called CD3opt (P033.078); P033.078 in TCB format
B2: Humanized variant H1L2 of anti-idiotypic antibody 4.24.72 (IgG) (antibody, V domains shown)
VH: QVQLVQSGSELKKPGASVKVSCKASGYTVTDYSMNWVRQAPGQGLEWMGWINTETGEPRYTDDFKGRFVFSLDTSVSTAYLQISSLKAEDTAVYYCAREGDYDVFDYWGQGTLVTVSS
VL: DIVMTQSPDSLAVSLGERATINCKSSKSVSTSSYSYMHWYQQKPGQPPKLLIKYVSYLESGVPDRFSGSGSGTDFTLTISSLQAEDVAVYYCQHSREFPYTFGQGTKLEIK
notes: Produced and purified as IgG; also called Mask humanization variant H1L2
B3: Humanized variant H1L1 of anti-idiotypic antibody 4.24.72 (IgG) (antibody, V domains shown)
VH: B2 VH
VL: B2 VL with K24R, S25A
notes: Produced and purified as IgG; also called Mask humanization variant H1L1
B4: Humanized variant H3L2 of anti-idiotypic antibody 4.24.72 (IgG) (antibody, V domains shown)
VH: B2 VH with D62Q, D63G
VL: B2 VL
notes: Produced and purified as IgG; also called Mask humanization variant H3L2
B5: Humanized variant H2L2 of anti-idiotypic antibody 4.24.72 (IgG) (antibody, V domains shown)
VH: B2 VH with K65T
VL: B2 VL
notes: Produced and purified as IgG; also called Mask humanization variant H2L2

How the values were obtained:
[1] = biological target: T1, Human CD3ε stalk-Fc(knob)-Avi/CD3δ stalk-Fc(hole) (human); experiment: SPR, TCB format, monovalent binding
T1 construct: Heterodimeric Fc fusion; also called human CD3ε/δ; Human CD3 epsilon stalk-Fc(knob)-Avi
Procedure: The experimental setup is schematically depicted in FIG. 3.
The dissociation was monitored for 800 s.
Kinetic constants were derived using the Biacore T200 Evaluation Software (GE Healthcare Life Sciences), to fit rate equations for 1:1 Langmuir binding by numerical integration. The half-life (t_{1/2}) of the interaction was calculated using the formula t_{1/2}=ln 2/koff.

[2] = biological target: T1, Human CD3ε stalk-Fc(knob)-Avi/CD3δ …; experiment: SPR, biotinylated human CD3ε/δ on SA chip, TCB at 2 µg/ml; response normalised to anti-huIgG capture and referenced to the unstressed sample; after 2 weeks at pH 6.0/40 °C
Procedure: (§1) In order to assess the effect of the deamidation site removal and its effect on the stability of the antibodies, the optimized anti-CD3 antibodies (in TCB format) were incubated for 14 days at 37° C., pH 7.4 and at 40° C., pH 6 and further analyzed by SPR for their binding capability to human CD3ε/δ. Samples stored at −80° C. pH 6 were used as reference. The reference samples and the samples stressed at 40° C. were in 20 mM His, 140 mM NaCl, pH 6.0, and the samples stressed at 37° C. in PBS, pH 7.4, all at a concentration of 1.0 mg/ml. After the stress period (14 days) samples in PBS were dialyzed back to 20 mM His, 140 mM NaCl, pH 6.0 for further analysis.
(§2) All SPR experiments were performed on a Biacore T200 instrument (GE Healthcare) at 25° C. with HBS-P+ (10 mM HEPES, 150 mM NaCl pH 7.4, 0.05% Surfactant P20) as running and dilution buffer. Biotinylated human CD3ε/δ (see Example 3, SEQ ID NOs 41 and 42) as well as biotinylated anti-huIgG (Capture Select, Thermo Scientific, #7103262100) were immobilized on a Series S Sensor Chip SA (GE Healthcare, #29104992), resulting in surface densities of at least 1000 resonance units (RU). Anti-CD3 antibodies with a concentration of 2 μg/ml were injected for 30 s at a flow rate of 5 μl/min, and dissociation was monitored for 120 s. The surface was regenerated by injecting 10 mM glycine pH 1.5 for 60 s. Bulk refractive index differences were corrected by subtracting blank injections and by subtracting the response obtained from a blank control flow cell. For evaluation, the binding response 5 seconds after injection end was taken. To normalize the binding signal, the CD3 binding was divided by the anti-huIgG response (the signal (RU) obtained upon capture of the CD3 antibody on the immobilized anti-huIgG antibody). The relative binding activity was calculated by referencing each temperature stressed sample to the corresponding, non-stressed sample.

[3] = biological target: T1, Human CD3ε stalk-Fc(knob)-Avi/CD3δ …; experiment: SPR, biotinylated human CD3ε/δ on SA chip, TCB at 2 µg/ml; response normalised to anti-huIgG capture and referenced to the unstressed sample; after 2 weeks at pH 7.4/37 °C
Procedure: as §1, §2

[4] = biological target: T2, FOLR1 CD3 TCB P035.093; experiment: SPR, Biacore T200, 37 °C; FOLR1 CD3 TCB P035.093 captured on FOLR1-Fc (C1 chip), anti-idiotypic antibody as analyte; n=5; Stdev 198 s
T2 construct: Classical 2+1 TCB, knob-into-hole, PGLALA; the common light chain pairs with each of the Fabs; also called FOLR1 TCB CD3: P035.093
Procedure: (§3) Briefly, FOLR1-Fc was immobilized on a series s sensor chip C1 using standard amine coupling chemistry according to the manufacturer's instructions. […] The first flow cell was kept as mock surface. […] Dissociation was monitored for 300 s, the flow rate was set to 30 μl/min. The surface was regenerated by injecting 10 mM Glycine pH 2.0 for 60 s, followed by injecting 5 mM NaOH for 60 s at a flow rate of 5 μl/min. Bulk refractive index differences were corrected by subtracting the response obtained from flow cell one (mock surface) as well as by substracting buffer injections (double referencing). The derived curves were fitted to a 1:1 Langmuir binding model using the BIAevaluation software (GE Healthcare). […] All experiments were performed at 37° C. using HBS-N (10 mM HEPES, 150 mM NaCl pH 7.4, 0.05% Surfactant P-20).

[5] = biological target: T2, FOLR1 CD3 TCB P035.093; experiment: SPR, Biacore T200, 37 °C; FOLR1 CD3 TCB P035.093 captured on FOLR1-Fc (C1 chip), anti-idiotypic antibody 1.2-100 nM as analyte; 1:1 Langmuir fit; n=5; Stdev 0.5 nM
Procedure: as §3

[6] = biological target: T3, biotinylated anti-human CD3 IgG (anti-CD3 P035.093) (biotinylated (site not stated)); experiment: SPR; biotinylated anti-CD3 P035.093 IgG on CAP chip, anti-idiotypic IgG at 1 µg/ml; response normalised to anti-human IgG surface and to the unstressed sample; after 14 d at 37 °C pH 7.4
T3 construct: IgG format of this reagent is not described further; immobilised on a CAP chip; also called CD3 IgG (P035.093)
Procedure: Therefore, they were analyzed for thermal stability and remaining target binding after 14 d stress conditions (40° C. at pH6.0 or 37° C. at pH7.4).
(§4) Flow cell 1 was kept as mock surface. […] Dissociation was monitored for 30 s, the flow rate was set to 5 μl/min. The CAP chip was regenerated by injecting a mix of NaOH and Guadinium-hydrochloride for 120 s, provided in the biotin capture kit. Bulk refractive index differences were corrected by subtracting the response obtained from flow cell 1 (mock surface).

[7] = biological target: T3, biotinylated anti-human CD3 IgG …; experiment: SPR; biotinylated anti-CD3 P035.093 IgG on CAP chip, anti-idiotypic IgG at 1 µg/ml; response normalised to anti-human IgG surface and to the unstressed sample; after 14 d at 40 °C pH 6.0
Procedure: as §4

[8] = biological target: T2, FOLR1 CD3 TCB P035.093; experiment: SPR, Biacore T200, 37 °C; FOLR1 CD3 TCB P035.093 captured on FOLR1-Fc (C1 chip), anti-idiotypic antibody as analyte; n=5; Stdev 66 s
Procedure: as §3

[9] = biological target: T2, FOLR1 CD3 TCB P035.093; experiment: SPR, Biacore T200, 37 °C; FOLR1 CD3 TCB P035.093 captured on FOLR1-Fc (C1 chip), anti-idiotypic antibody 1.2-100 nM as analyte; 1:1 Langmuir fit; n=5; Stdev 0.6 nM
Procedure: as §3

[10] = biological target: T2, FOLR1 CD3 TCB P035.093; experiment: SPR, Biacore T200, 37 °C; FOLR1 CD3 TCB P035.093 captured on FOLR1-Fc (C1 chip), anti-idiotypic antibody as analyte; n=5; Stdev 222 s
Procedure: as §3

[11] = biological target: T2, FOLR1 CD3 TCB P035.093; experiment: SPR, Biacore T200, 37 °C; FOLR1 CD3 TCB P035.093 captured on FOLR1-Fc (C1 chip), anti-idiotypic antibody as analyte; n=5; Stdev 156 s
Procedure: as §3

[12] = biological target: T2, FOLR1 CD3 TCB P035.093; experiment: SPR, Biacore T200, 37 °C; FOLR1 CD3 TCB P035.093 captured on FOLR1-Fc (C1 chip), anti-idiotypic antibody 1.2-100 nM as analyte; 1:1 Langmuir fit; n=5; Stdev 1.0 nM
Procedure: as §3

T3 sequence (VH, as listed by the source, chain 1 of 2): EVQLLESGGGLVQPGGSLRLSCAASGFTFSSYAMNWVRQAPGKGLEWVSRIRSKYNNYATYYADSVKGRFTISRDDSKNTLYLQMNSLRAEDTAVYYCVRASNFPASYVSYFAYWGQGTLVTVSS
T3 sequence (VL, as listed by the source, chain 2 of 2): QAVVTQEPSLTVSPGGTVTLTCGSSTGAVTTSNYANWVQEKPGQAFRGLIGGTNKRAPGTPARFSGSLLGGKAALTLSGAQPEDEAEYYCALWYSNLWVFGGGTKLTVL

Binder | Kd [5] [nM] | Rel. active concentration [%] [6] [%] | Rel. active concentration [%] [7] [%] | also measured
B1 |  |  |  | fold of binding half-life over CD3orig [1]: ≤ 6 fold; binding activity [%] [2]: 99%; binding activity [%] [3]: 99%
B2 | 1.2 | 94 | 97 | t1/2 diss [4]: 6.6 min
B3 |  | 93 | 99 | t1/2 diss [8]: 6.18 min; Kd [9]: 1.8 nM
B4 | 1.1 | 94 | 97 | t1/2 diss [10]: 7.67 min
B5 |  | 93 | 98 | t1/2 diss [11]: 6.2 min; Kd [12]: 1.8 nM
